Reference: patent US12545899B2, “Luciferase enzymes for use with thermostable luciferins in bioluminescent assays” (Promega Corporation, priority 2018, dated 2026)

Legend:
[1] = E. coli lysate screen of epPCR/DNA shuffling variants with CS0280; format: biochemical; details: Detection Reagent, 1 mM ATP, 500 μM substrate, 3 mins
Protocol: (§1) These experiments included lysing E. coli cells expressing each luciferase enzyme variant in Detection Reagent containing 1 mM ATP+500 μM substrate. The cell lysate was incubated at room temperature for 3 mins and luminescence was read. The raw luminescence reading was normalized to the on-plate luminescence of ATG-2889, which was used as a control in this screen.

[2] = E. coli lysate screen of epPCR/DNA shuffling variants with CS0333; format: biochemical; details: Detection Reagent, 1 mM ATP, 500 μM substrate, 3 mins
Protocol: as §1

Molecule	Normalized luminescence (Mutant RLU/ATG2889 RLU) with CS0280 [1]	Normalized luminescence (Mutant RLU/ATG2889 RLU) with CS0333 [2]
C4609F7: SEQ ID NO: 64; H244W+T344A+I396K+Y108F+V262A+L305F (protein) MADKNILYGPEPFYPLEDGTAGEQMFDALSRYAAIPGCIALTNAHTKENVLYEEFLKLSCRLAESFKKYGLKQNDTIAVCSENSLQFFLPVIASLYLGIIVAPVNDKFIERELIHSLGIVKPRIVFCSKNTFQKVLNVKSKLKSIETIIILDLNEDLGGYQCLNNFISQNSDSNLDVKKFKPYSFNRDDQVASIMFSSGTTGLPKGVMLTHKNIVARFSIAKDPTFGNAINPTSAILTVIPFHWGFGMMTTLGYFTCGFRVALMHTFEEKLFLQSLQDYKVESTLLVPTLMAFLAKSALVEKYDFSHLKEIASGGAPLSKEIGEMVKKRFKLNFVRQGYGLTEATSAVLITPKGDAKPGSTGKIVPLHAVKVVDPTTGKILGPNEPGELYFKGPMKMKGYYNNEEATKAIIDNDGWLRSGDIAYYDNDGHFYIVDRLKSLIKYKGYQVAPAEIEGILLQHPYIVDAGVTGIPDEAAGELPAAGVVVQTGKYLNEQIVQDYVASQVSTAKWLRGGVKFLDEIPKGSTGKIDRKVLRQMLEKHTNGHHHHHHHH	3.90	6.04
C4581C3: SEQ ID NO: 55; H244W+T344A+I396K+I109M+S193L (protein) MADKNILYGPEPFYPLEDGTAGEQMFDALSRYAAIPGCIALTNAHTKENVLYEEFLKLSCRLAESFKKYGLKQNDTIAVCSENSLQFFLPVIASLYLGIIVAPVNDKYMERELIHSLGIVKPRIVFCSKNTFQKVLNVKSKLKSIETIIILDLNEDLGGYQCLNNFISQNSDSNLDVKKFKPYSFNRDDQVALIMFSSGTTGLPKGVMLTHKNIVARFSIAKDPTFGNAINPTSAILTVIPFHWGFGMMTTLGYFTCGFRVVLMHTFEEKLFLQSLQDYKVESTLLVPTLMAFLAKSALVEKYDLSHLKEIASGGAPLSKEIGEMVKKRFKLNFVRQGYGLTEATSAVLITPKGDAKPGSTGKIVPLHAVKVVDPTTGKILGPNEPGELYFKGPMKMKGYYNNEEATKAIIDNDGWLRSGDIAYYDNDGHFYIVDRLKSLIKYKGYQVAPAEIEGILLQHPYIVDAGVTGIPDEAAGELPAAGVVVQTGKYLNEQIVQDYVASQVSTAKWLRGGVKFLDEIPKGSTGKIDRKVLRQMLEKHTNGHHHHHHHH	3.88	1.04
C4610H6: SEQ ID NO: 66; H244W+T344A+I396K+K107Q+N228D (protein) MADKNILYGPEPFYPLEDGTAGEQMFDALSRYAAIPGCIALTNAHTKENVLYEEFLKLSCRLAESFKKYGLKQNDTIAVCSENSLQFFLPVIASLYLGIIVAPVNDQYIERELIHSLGIVKPRIVFCSKNTFQKVLNVKSKLKSIETIIILDLNEDLGGYQCLNNFISQNSDSNLDVKKFKPYSFNRDDQVASIMFSSGTTGLPKGVMLTHKNIVARFSIAKDPTFGDAINPTSAILTVIPFHWGFGMMTTLGYFTCGFRVVLMHTFEEKLFLQSLQDYKVESTLLVPTLMAFLAKSALVEKYDLSHLKEIASGGAPLSKEIGEMVKKRFKLNFVRQGYGLTEATSAVLITPKGDAKPGSTGKIVPLHAVKVVDPTTGKILGPNEPGELYFKGPMKMKGYYNNEEATKAIIDNDGWLRSGDIAYYDNDGHFYIVDRLKSLIKYKGYQVAPAEIEGILLQHPYIVDAGVTGIPDEAAGELPAAGVVVQTGKYLNEQIVQDYVASQVSTAKWLRGGVKFLDEIPKGSTGKIDRKVLRQMLEKHTNGHHHHHHHH	3.67	4.15
C4610C10: SEQ ID NO: 65; H244W+T344A+1396K+S306P (protein) MADKNILYGPEPFYPLEDGTAGEQMFDALSRYAAIPGCIALTNAHTKENVLYEEFLKLSCRLAESFKKYGLKQNDTIAVCSENSLQFFLPVIASLYLGIIVAPVNDKYIERELIHSLGIVKPRIVFCSKNTFQKVLNVKSKLKSIETIIILDLNEDLGGYQCLNNFISQNSDSNLDVKKFKPYSFNRDDQVASIMFSSGTTGLPKGVMLTHKNIVARFSIAKDPTFGNAINPTSAILTVIPFHWGFGMMTTLGYFTCGFRVVLMHTFEEKLFLQSLQDYKVESTLLVPTLMAFLAKSALVEKYDLPHLKEIASGGAPLSKEIGEMVKKRFKLNFVRQGYGLTEATSAVLITPKGDAKPGSTGKIVPLHAVKVVDPTTGKILGPNEPGELYFKGPMKMKGYYNNEEATKAIIDNDGWLRSGDIAYYDNDGHFYIVDRLKSLIKYKGYQVAPAEIEGILLQHPYIVDAGVTGIPDEAAGELPAAGVVVQTGKYLNEQIVQDYVASQVSTAKWLRGGVKFLDEIPKGSTGKIDRKVLRQMLEKHTNGHHHHHHHH	3.60	4.32
C4589D5: SEQ ID NO: 59; H244W+T344A+I396K+A40A+K107Q+S193T+A316S (protein) MADKNILYGPEPFYPLEDGTAGEQMFDALSRYAAIPGCIALTNAHTKENVLYEEFLKLSCRLAESFKKYGLKQNDTIAVCSENSLQFFLPVIASLYLGIIVAPVNDQYIERELIHSLGIVKPRIVFCSKNTFQKVLNVKSKLKSIETIIILDLNEDLGGYQCLNNFISQNSDSNLDVKKFKPYSFNRDDQVATIMFSSGTTGLPKGVMLTHKNIVARFSIAKDPTFGNAINPTSAILTVIPFHWGFGMMTTLGYFTCGFRVVLMHTFEEKLFLQSLQDYKVESTLLVPTLMAFLAKSALVEKYDLSHLKEIASGGSPLSKEIGEMVKKRFKLNFVRQGYGLTEATSAVLITPKGDAKPGSTGKIVPLHAVKVVDPTTGKILGPNEPGELYFKGPMKMKGYYNNEEATKAIIDNDGWLRSGDIAYYDNDGHFYIVDRLKSLIKYKGYQVAPAEIEGILLQHPYIVDAGVTGIPDEAAGELPAAGVVVQTGKYLNEQIVQDYVASQVSTAKWLRGGVKFLDEIPKGSTGKIDRKVLRQMLEKHTNGHHHHHHHH	12.42	3.79
C4584D9: SEQ ID NO: 56; H244W+T344A+I396K+I109M+S193L+L294H (protein) MADKNILYGPEPFYPLEDGTAGEQMFDALSRYAAIPGCIALTNAHTKENVLYEEFLKLSCRLAESFKKYGLKQNDTIAVCSENSLQFFLPVIASLYLGIIVAPVNDKYMERELIHSLGIVKPRIVFCSKNTFQKVLNVKSKLKSIETIIILDLNEDLGGYQCLNNFISQNSDSNLDVKKFKPYSFNRDDQVALIMFSSGTTGLPKGVMLTHKNIVARFSIAKDPTFGNAINPTSAILTVIPFHWGFGMMTTLGYFTCGFRVVLMHTFEEKLFLQSLQDYKVESTLLVPTLMAFHAKSALVEKYDLSHLKEIASGGAPLSKEIGEMVKKRFKLNFVRQGYGLTEATSAVLITPKGDAKPGSTGKIVPLHAVKVVDPTTGKILGPNEPGELYFKGPMKMKGYYNNEEATKAIIDNDGWLRSGDIAYYDNDGHFYIVDRLKSLIKYKGYQVAPAEIEGILLQHPYIVDAGVTGIPDEAAGELPAAGVVVQTGKYLNEQIVQDYVASQVSTAKWLRGGVKFLDEIPKGSTGKIDRKVLRQMLEKHTNGHHHHHHHH	12.41	2.67
C4604A11: SEQ ID NO: 62; H244W+T344A+I396K+I109M+A316S (protein) MADKNILYGPEPFYPLEDGTAGEQMFDALSRYAAIPGCIALTNAHTKENVLYEEFLKLSCRLAESFKKYGLKQNDTIAVCSENSLQFFLPVIASLYLGIIVAPVNDKYMERELIHSLGIVKPRIVFCSKNTFQKVLNVKSKLKSIETIIILDLNEDLGGYQCLNNFISQNSDSNLDVKKFKPYSFNRDDQVASIMFSSGTTGLPKGVMLTHKNIVARFSIAKDPTFGNAINPTSAILTVIPFHWGFGMMTTLGYFTCGFRVVLMHTFEEKLFLQSLQDYKVESTLLVPTLMAFLAKSALVEKYDLSHLKEIASGGSPLSKEIGEMVKKRFKLNFVRQGYGLTEATSAVLITPKGDAKPGSTGKIVPLHAVKVVDPTTGKILGPNEPGELYFKGPMKMKGYYNNEEATKAIIDNDGWLRSGDIAYYDNDGHFYIVDRLKSLIKYKGYQVAPAEIEGILLQHPYIVDAGVTGIPDEAAGELPAAGVVVQTGKYLNEQIVQDYVASQVSTAKWLRGGVKFLDEIPKGSTGKIDRKVLRQMLEKHTNGHHHHHHHH	12.16	2.41
C4580B10: SEQ ID NO: 53; H244W+T344A+I396K+K107Q+S193T+V262A (protein) MADKNILYGPEPFYPLEDGTAGEQMFDALSRYAAIPGCIALTNAHTKENVLYEEFLKLSCRLAESFKKYGLKQNDTIAVCSENSLQFFLPVIASLYLGIIVAPVNDQYIERELIHSLGIVKPRIVFCSKNTFQKVLNVKSKLKSIETIIILDLNEDLGGYQCLNNFISQNSDSNLDVKKFKPYSFNRDDQVATIMFSSGTTGLPKGVMLTHKNIVARFSIAKDPTFGNAINPTSAILTVIPFHWGFGMMTTLGYFTCGFRVALMHTFEEKLFLQSLQDYKVESTLLVPTLMAFLAKSALVEKYDLSHLKEIASGGAPLSKEIGEMVKKRFKLNFVRQGYGLTEATSAVLITPKGDAKPGSTGKIVPLHAVKVVDPTTGKILGPNEPGELYFKGPMKMKGYYNNEEATKAIIDNDGWLRSGDIAYYDNDGHFYIVDRLKSLIKYKGYQVAPAEIEGILLQHPYIVDAGVTGIPDEAAGELPAAGVVVQTGKYLNEQIVQDYVASQVSTAKWLRGGVKFLDEIPKGSTGKIDRKVLRQMLEKHTNGHHHHHHHH	9.35	4.64
C4588H8: SEQ ID NO: 58; H244W+T344A+I396K+K107Q+L305F (protein) MADKNILYGPEPFYPLEDGTAGEQMFDALSRYAAIPGCIALTNAHTKENVLYEEFLKLSCRLAESFKKYGLKQNDTIAVCSENSLQFFLPVIASLYLGIIVAPVNDQYIERELIHSLGIVKPRIVFCSKNTFQKVLNVKSKLKSIETIIILDLNEDLGGYQCLNNFISQNSDSNLDVKKFKPYSFNRDDQVASIMFSSGTTGLPKGVMLTHKNIVARFSIAKDPTFGNAINPTSAILTVIPFHWGFGMMTTLGYFTCGFRVVLMHTFEEKLFLQSLQDYKVESTLLVPTLMAFLAKSALVEKYDFSHLKEIASGGAPLSKEIGEMVKKRFKLNFVRQGYGLTEATSAVLITPKGDAKPGSTGKIVPLHAVKVVDPTTGKILGPNEPGELYFKGPMKMKGYYNNEEATKAIIDNDGWLRSGDIAYYDNDGHFYIVDRLKSLIKYKGYQVAPAEIEGILLQHPYIVDAGVTGIPDEAAGELPAAGVVVQTGKYLNEQIVQDYVASQVSTAKWLRGGVKFLDEIPKGSTGKIDRKVLRQMLEKHTNGHHHHHHHH	6.56	3.90
